Source: paper PMC4377555, “A novel PKD2L1 C-terminal domain critical for trimerization and channel function” (Scientific Reports, 2015)
Values joined by “and” are separate entries in the source; they are usually repeats but may differ in a detail not shown here. Equal values may be shown once.

What was measured:
[1] = target: the molecule itself; experiment: native gel or EMSA; BN-PAGE with Western blot of HeLa cell lysates (NativePAGE Sample Prep Kit, Coomassie G-250, 3-12% BisTris gels), non-denaturing
[2] = target: the molecule itself; experiment: non-reducing SDS-PAGE with Western blot; lysates of transfected HEK or HeLa cells, SDS loading buffer without reducing reagents, on ice 5 min, 8% gel; some samples also under reducing condition or with 10 mM NEM in the lysis buffer
[3] = target: the molecule itself; experiment: dynamic light scattering; Malvern Zetasizer Nano ZS, 25°C; 50 mM NaH2PO4, 300 mM NaCl, 250 mM imidazole, pH 8.0; 0.4 mg/ml; oligomeric state from the apparent hydrodynamic diameter
[4] = target: the molecule itself; experiment: native gel or EMSA; BN-PAGE of purified GFP fusion proteins, Coomassie blue staining

Protein | stoichiometry N [1] | stoichiometry N [2] | also measured
Flag-tagged PKD2L1 ΔNT (deletion of M1-Y96) (domain or fragment, human, UniProt Q9P0L9-1 97-805, looked up, PKD2L1, human, deletion of the N-terminus M1-Y96; also called Flag-ΔNT; Ctrl (ΔNT); source: HeLa or HEK cells, transfected, in lysate; not shown: Flag, N-terminal, kept) IKTTLRELLVYIVFLVDICLLTYGMTSSSAYYYTKVMSELFLHTPSDTGVSFQAISSMADFWDFAQGPLLDSLYWTKWYNNQSLGHGSHSFIYYENMLLGVPRLRQLKVRNDSCVVHEDFREDILSCYDVYSPDKEEQLPFGPFNGTAWTYHSQDELGGFSHWGRLTSYSGGGYYLDLPGSRQGSAEALRALQEGLWLDRGTRVVFIDFSVYNANINLFCVLRLVVEFPATGGAIPSWQIRTVKLIRYVSNWDFFIVGCEVIFCVFIFYYVVEEILELHIHRLRYLSSIWNILDLVVILLSIVAVGFHIFRTLEVNRLMGKLLQQPNTYADFEFLAFWQTQYNNMNAVNLFFAWIKIFKYISFNKTMTQLSSTLARCAKDILGFAVMFFIVFFAYAQLGYLLFGTQVENFSTFIKCIFTQFRIILGDFDYNAIDNANRILGPAYFVTYVFFVFFVLLNMFLAIINDTYSEVKEELAGQKDELQLSDLLKQGYNKTLLRLRLRKERVSDVQKVLQGGEQEIQFEDFTNTLRELGHAEHEITELTATFTKFDRDGNRILDEKEQEKMRQDLEEERVALNTEIEKLGRSIVSSPQGKSGPEAARAGGWVSGEEFYMLTRRVLQLETVLEGVVSQIDAVGSKLKMLERKGWLAPSPGVKEQAIWKHPQPAPAVTPDPWGVQGGQESEVPYKREEEALEERRLSRGEIPTLQRS | 3 |  | 
Flag-tagged PKD2L1 ΔNT/T622X (M1-Y96 and T622-S805 double deletion) (domain or fragment, human, UniProt Q9P0L9-1 97-621, looked up, PKD2L1, human, M1-Y96 and T622-S805 deleted; source: HeLa cells, transfected, in lysate; not shown: Flag, N-terminal, kept) IKTTLRELLVYIVFLVDICLLTYGMTSSSAYYYTKVMSELFLHTPSDTGVSFQAISSMADFWDFAQGPLLDSLYWTKWYNNQSLGHGSHSFIYYENMLLGVPRLRQLKVRNDSCVVHEDFREDILSCYDVYSPDKEEQLPFGPFNGTAWTYHSQDELGGFSHWGRLTSYSGGGYYLDLPGSRQGSAEALRALQEGLWLDRGTRVVFIDFSVYNANINLFCVLRLVVEFPATGGAIPSWQIRTVKLIRYVSNWDFFIVGCEVIFCVFIFYYVVEEILELHIHRLRYLSSIWNILDLVVILLSIVAVGFHIFRTLEVNRLMGKLLQQPNTYADFEFLAFWQTQYNNMNAVNLFFAWIKIFKYISFNKTMTQLSSTLARCAKDILGFAVMFFIVFFAYAQLGYLLFGTQVENFSTFIKCIFTQFRIILGDFDYNAIDNANRILGPAYFVTYVFFVFFVLLNMFLAIINDTYSEVKEELAGQKDELQLSDLLKQGYNKTLLRLRLRKERVSDVQKVLQGGEQEIQFEDF |  | 3 | 
purified PKD2L1 C-terminus (CT, E566-S805) (domain or fragment, human, UniProt Q9P0L9-1 566-805, looked up, PKD2L1, human, C-terminus E566-S805; the methods describe only GFP-C1 in pET28a(+) and Ni-NTA; the DLS buffer holds 250 mM imidazole; source: E. coli, purified) EVKEELAGQKDELQLSDLLKQGYNKTLLRLRLRKERVSDVQKVLQGGEQEIQFEDFTNTLRELGHAEHEITELTATFTKFDRDGNRILDEKEQEKMRQDLEEERVALNTEIEKLGRSIVSSPQGKSGPEAARAGGWVSGEEFYMLTRRVLQLETVLEGVVSQIDAVGSKLKMLERKGWLAPSPGVKEQAIWKHPQPAPAVTPDPWGVQGGQESEVPYKREEEALEERRLSRGEIPTLQRS |  |  | stoichiometry N [3]: 3
human PKD2L1 over-expressed from pcDNA3.1(+) (natural protein, UniProt Q9P0L9-1 1-805, looked up, PKD2L1, human, full-length cDNA in pcDNA3.1(+), no tag named for this experiment; also called TRPP3; source: HEK293T and HeLa cells, transfected, in lysate) MNAVGSPEGQELQKLGSGAWDNPAYSGPPSPHGTLRVCTISSTGPLQPQPKKPEDEPQETAYRTQVSSCCLHICQGIRGLWGTTLTENTAENRELYIKTTLRELLVYIVFLVDICLLTYGMTSSSAYYYTKVMSELFLHTPSDTGVSFQAISSMADFWDFAQGPLLDSLYWTKWYNNQSLGHGSHSFIYYENMLLGVPRLRQLKVRNDSCVVHEDFREDILSCYDVYSPDKEEQLPFGPFNGTAWTYHSQDELGGFSHWGRLTSYSGGGYYLDLPGSRQGSAEALRALQEGLWLDRGTRVVFIDFSVYNANINLFCVLRLVVEFPATGGAIPSWQIRTVKLIRYVSNWDFFIVGCEVIFCVFIFYYVVEEILELHIHRLRYLSSIWNILDLVVILLSIVAVGFHIFRTLEVNRLMGKLLQQPNTYADFEFLAFWQTQYNNMNAVNLFFAWIKIFKYISFNKTMTQLSSTLARCAKDILGFAVMFFIVFFAYAQLGYLLFGTQVENFSTFIKCIFTQFRIILGDFDYNAIDNANRILGPAYFVTYVFFVFFVLLNMFLAIINDTYSEVKEELAGQKDELQLSDLLKQGYNKTLLRLRLRKERVSDVQKVLQGGEQEIQFEDFTNTLRELGHAEHEITELTATFTKFDRDGNRILDEKEQEKMRQDLEEERVALNTEIEKLGRSIVSSPQGKSGPEAARAGGWVSGEEFYMLTRRVLQLETVLEGVVSQIDAVGSKLKMLERKGWLAPSPGVKEQAIWKHPQPAPAVTPDPWGVQGGQESEVPYKREEEALEERRLSRGEIPTLQRS |  | 2 and 3 and 4 | 
KDELQLSDLLKQGYNKTLLRLRLRKERVSDVQKVLQGGEQEIQFEDFT (domain or fragment, human, UniProt Q9P0L9-1 575-622, looked up, PKD2L1, human, domain C1 K575-T622 (48 amino acids), in pET28a(+) with an upstream GFP gene; source: E. coli BL21 (DE3), purified (Ni-NTA); not shown: GFP, N-terminal, kept) [GFP-C1 (GFP fused to PKD2L1 C1, K575-T622)] |  |  | stoichiometry N [4]: 3
Flag-tagged human PKD2L1 WT (natural protein, UniProt Q9P0L9-1 1-805, looked up, PKD2L1, human, full-length cDNA in pcDNA3.1(+), Flag inserted 5' of the coding region; also called Flag-PKD2L1; source: HeLa cells, transfected, in lysate; not shown: Flag, N-terminal, kept) MNAVGSPEGQELQKLGSGAWDNPAYSGPPSPHGTLRVCTISSTGPLQPQPKKPEDEPQETAYRTQVSSCCLHICQGIRGLWGTTLTENTAENRELYIKTTLRELLVYIVFLVDICLLTYGMTSSSAYYYTKVMSELFLHTPSDTGVSFQAISSMADFWDFAQGPLLDSLYWTKWYNNQSLGHGSHSFIYYENMLLGVPRLRQLKVRNDSCVVHEDFREDILSCYDVYSPDKEEQLPFGPFNGTAWTYHSQDELGGFSHWGRLTSYSGGGYYLDLPGSRQGSAEALRALQEGLWLDRGTRVVFIDFSVYNANINLFCVLRLVVEFPATGGAIPSWQIRTVKLIRYVSNWDFFIVGCEVIFCVFIFYYVVEEILELHIHRLRYLSSIWNILDLVVILLSIVAVGFHIFRTLEVNRLMGKLLQQPNTYADFEFLAFWQTQYNNMNAVNLFFAWIKIFKYISFNKTMTQLSSTLARCAKDILGFAVMFFIVFFAYAQLGYLLFGTQVENFSTFIKCIFTQFRIILGDFDYNAIDNANRILGPAYFVTYVFFVFFVLLNMFLAIINDTYSEVKEELAGQKDELQLSDLLKQGYNKTLLRLRLRKERVSDVQKVLQGGEQEIQFEDFTNTLRELGHAEHEITELTATFTKFDRDGNRILDEKEQEKMRQDLEEERVALNTEIEKLGRSIVSSPQGKSGPEAARAGGWVSGEEFYMLTRRVLQLETVLEGVVSQIDAVGSKLKMLERKGWLAPSPGVKEQAIWKHPQPAPAVTPDPWGVQGGQESEVPYKREEEALEERRLSRGEIPTLQRS | 3 and 2 |  | 
